Test results: patent US20210340232A1, “MONOCLONAL ANTIBODIES AGAINST HUMAN DICKKOPF3 AND USES THEREOF” (Board of Regents, The University of Texas System, priority 2018, published 2021)

Legend:
BxPC3 cells = experiment: BxPC3 resistance to gemcitabine, MTS proliferation assay; type: cell-based, human; settings: BxPC3, gemcitabine 100 μM, HPSC-CM 10 μg/ml, 6 days
Procedure: HPSCs and BxPC3 cells were treated with DKK3 mAb clones JM6-6-1 and JM8-12-1 or isotype control mAb or PBS. (FIGS. 5A-B) HPSC apoptosis and migration as measured by FACS and Transwell migration assay at 48 hours. (FIG. 5C) BxPC3 migration in response to rhDKK3 10 μg/ml as measured by Transwell migration assay at 48 hours. (FIG. 5D) BxPC3 resistance to gemcitabine 100 μM as measured by MTS proliferation assay at 6 days. HPSC-CM, pancreatic stellate cell conditioned media, 10 μg/ml. The orthotopic co-injection BxPC3+ HPSC model of PDAC was used to test the efficacy of DKK3 mAb clones JM6-6-1 or JM8-12-1 (5 mg/kg i.p. once every 5 days). (FIG. 5E) Overall tumor progression was measured every 3-4 days by IVIS imaging. (FIG. 5F) Metastatic tumors in the peritoneal cavity after removal of the primary pancreatic tumor are shown by IVIS imaging. (FIG. 5G) Kaplan Meier survival curve showing mice treated with DKK3 mAb clone JM8-12 (right-most line), control mAb (middle line), or PBS (left-most line). (FIG. 5H) KPC mice (P48-Cre; Kras LSL-G12D;Trp53fl/fl) with either wild type DKK3 (solid lines) or deficient in DKK3 (“DKK3-KO,” dashed lines) were treated with DKK3 mAb JM6-6-1 (5 mg/kg i.p. once every 5 days), PBS or control mAb. […]
Cell-based assays. Cell proliferation was measured by the MTS assay (Promega, Madison, Wis.). […]

DKK3 = biological target: T1, DKK3 (Homo sapiens, UniProt Q9UBP4); experiment: Cell surface binding of His-tagged rhDKK3 by flow cytometry; settings: BxPC3 or L3.6p1 cells, rhDKK3 10 μg/ml, JM6-6-1 70 μg/ml
T1 construct: purchased R&D
T1 sequence (Q9UBP4 22-350): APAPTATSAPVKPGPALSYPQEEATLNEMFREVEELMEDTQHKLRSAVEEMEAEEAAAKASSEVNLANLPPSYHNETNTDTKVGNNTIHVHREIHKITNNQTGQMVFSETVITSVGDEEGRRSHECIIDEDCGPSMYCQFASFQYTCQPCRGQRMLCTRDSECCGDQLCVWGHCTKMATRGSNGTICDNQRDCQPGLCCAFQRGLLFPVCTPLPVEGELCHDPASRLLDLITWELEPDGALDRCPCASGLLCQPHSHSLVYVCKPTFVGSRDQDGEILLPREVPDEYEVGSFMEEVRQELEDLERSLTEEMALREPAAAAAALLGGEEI
Procedure: FIGS. 11A-C. DKK3 expression in autochthonous model of PDAC and effects of DKK3 mAb on cell surface binding of DKK3 and orthotopic model. (FIG. 11A) DKK3 expression was measured by qPCR in pancreatic tumors from P48-Cre; Kras LSL-G12D;Trp53fl/fl and P48-Cre; Kras LSL-G12D;Trp53fl/+ mice that are either wild type DKK3 or heterozygous or homozygous DKK3-null. Relative expression of DKK3 mRNA in DKK3+/− hetero mice is 53% of DKK3^+/+ mice. (FIG. 11B) DKK3 cell surface binding was assessed by incubating BxPC3 or L3.6p1 cells with His-tagged rhDKK3 (10 μg/ml) with or without JM6-6-1 (70 μg/ml) and positive cells were sorted by flow cytometry. (FIG. 11C) Mice bearing orthotopic BxPC3 tumors were treated with DKK3 mAb JM6-6-1 (5 mg/kg i.p. once every 5 days). Overall tumor progression was measured every 3-4 days by IVIS imaging.
Binding assay. Cell surface binding of DKK3 was performed using flow cytometry. In brief, BxPC3 or L3.6p1 cells (0.5×10^6) were incubated for 30 min with His-labeled rhDKK3 (10 μg/mL) with or without JM6-6-1 (70 μg/mL). After washing with binding buffer (3% BSA in PBS), cells were stained with 1:100 anti-His antibody (abCam) for 30 min and followed by staining with secondary antibody conjugated with Dylight488 for 20 min. The cells were fixed with 2% paraformaldehyde and were subjected to fluorescent signal detection by BD FACSCalibur.

murine DKK3 = murine DKK3 (Mus musculus, UniProt Q9QUN9); experiment: Non-denaturing Western blot of recombinant DKK3 with JM6-6-1; type: binding
Sequence of murine DKK3 (Q9QUN9 23-349): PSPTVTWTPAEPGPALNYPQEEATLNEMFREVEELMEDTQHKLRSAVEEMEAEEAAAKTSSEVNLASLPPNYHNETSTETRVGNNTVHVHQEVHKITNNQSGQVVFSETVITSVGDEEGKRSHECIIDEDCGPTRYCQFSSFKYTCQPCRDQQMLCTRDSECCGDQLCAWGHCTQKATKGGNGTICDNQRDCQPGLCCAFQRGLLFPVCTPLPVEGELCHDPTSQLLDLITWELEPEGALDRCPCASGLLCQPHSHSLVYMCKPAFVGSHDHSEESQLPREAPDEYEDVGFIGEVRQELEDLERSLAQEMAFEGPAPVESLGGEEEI
Procedure: FIGS. 12A-D. DKK3 expression in mouse PSCs and effects of treatment with DKKC mAb on survival. (FIG. 12A) Western blot analysis of recombinant human and mouse DKK3 under denaturing and non-denaturing conditions using JM6-6-1 mAb. (FIG. 12B) Expression of murine DKK3 in murine PSCs (MPSC) or 3T3 cells was determined by RT-PCR. 18S was used as loading control. (FIG. 12C) Proliferation of MPSCs treated with DKK3 mAb was measured at 7 days by MTS assay. ***p<0.001 vs. PBS. (FIG. 12D) Pdx1-Cre; Kras LSL-G12D;Trp53fl/+ model of PDAC was treated with DKK3 mAb JM6-6-1 or control mAb JM4-74 (5 mg/kg i.p. q5d). Kaplan-Meier survival curves are shown (log rank test). At 0% survival, the right line is JM6-6-1, the middle lines is PBS, and the left line is Control Ab.
Human and murine DKK3 share 83% protein sequence homology by BLAST analysis and therefore it was anticipated that it was likely that JM6-6-1 could cross-react with host DKK3. […] When KPC mice (P48-Cre; Kras^LSL-G12D;Trp53^fl/fl) were treated with JM6-6-1 (red solid line, FIG. 5H), median survival increased by 43% from 43 to 61.5 days compared to PBS or isotype control mAb (p=0.005, HR 0.24, 95% CI 0.01-0.30; FIG. 5H).

B1: JM6-6-1: monoclonal antibody against human DKK3; heavy chain variable SEQ ID NO: 19, light chain variable SEQ ID NO: 20 (antibody, V domains shown)
VH: EVKLVESGGGLVKPGGSLKLSCAASGFTFTIEYMAWIRQTPEKRLEWVASISSGGDDIYYADNVKGRFTISRDNAKNTLYLQMSSLKSEDTAIYYCSRSLSDWGQGTTLTVSSAKTTPPSDYPLA
VL: MTQTPLSLPVSLGDQASISCRSSQSILHSNGHTYLEWYLQKPGQSPKLLIYKVSNRFSGVPDRFSGSGSGTDFTLKISRVEAEDLGVYYCFQGSHVPFTFGSGTKLEIERADAAQ
With B1 the “effect on DKK3-mediated chemoresistance to gemcitabine” value (BxPC3 cells) was “abrogated the DKK3-mediated induction of chemoresistance to gemcitabine”, the “blocking of rhDKK3 binding to PDAC cells” value (DKK3) was “effective in blocking binding of rhDKK3 to PDAC cells” and the “cross-reactivity with murine DKK3” value (murine DKK3) was “recognizes murine DKK3 although more weakly than human DKK3”.
